The values below come from article PMC11710176 (Alzheimer's & Dementia, 2024).

Broadly, the Kd is the concentration at which binding is half-saturated.

The assay concerns the target tau oligomers (UniProt P10636 1-758). Description: SPR; who was immobilised and the conditions not given. To be noted: both partners purified. (Surface plasmon resonance follows binding to a sensor surface in real time, without labels.)

Several values for one entry are separate records, joined by “and”; a condition that tells them apart may be missing. Equal values may be shown once.

B1: cellular prion protein (natural protein)
chain: not shown
notes: also called PrP^C; PrPC
As for B1, the Kd is 20 nM and 50 nM.
